From ChEMBL document CHEMBL3576833, “Design and Synthesis of Acetylenyl Benzamide Derivatives as Novel Glucokinase Activators for the Treatment of T2DM” (ACS Med Chem Lett, 2015)

Compound: COC[C@H](C)Oc1cc(C#Cc2cccc(N)c2)cc(C(=O)Nc2ccn(C)n2)c1
Assay: Activation of recombinant human pancreatic glucokinase using 10 mM glucose as substrate assessed as enzyme Vmax by G6PDH coupled assay

B1: Hexokinase-4 (Homo sapiens), P35557 (protein)
chain: MLDDRARMEAAKKEKVEQILAEFQLQEEDLKKVMRRMQKEMDRGLRLETHEEASVKMLPTYVRSTPEGSEVGDFLSLDLGGTNFRVMLVKVGEGEEGQWSVKTKHQMYSIPEDAMTGTAEMLFDYISECISDFLDKHQMKHKKLPLGFTFSFPVRHEDIDKGILLNWTKGFKASGAEGNNVVGLLRDAIKRRGDFEMDVVAMVNDTVATMISCYYEDHQCEVGMIVGTGCNACYMEEMQNVELVEGDEGRMCVNTEWGAFGDSGELDEFLLEYDRLVDESSANPGQQLYEKLIGGKYMGELVRLVLLRLVDENLLFHGEASEQLRTRGAFETRFVSQVESDTGDRKQIYNILSTLGLRPSTTDCDIVRRACESVSTRAAHMCSAGLAGVINRMRESRSEDVMRITVGVDGSVYKLHPSFKERFHASVRRLTPSCEITFIESEEGSGRGAALVSAVACKKACMLGQ
  Vmax: 126%
